Measurements reported in PMC8079276.

Target: UDP-N-acetylglucosamine-peptide N-acetylglucosaminyltransferase (mouse (endogenous in MEFs)) (UniProt Q8CGY8)
Experiment: co-IP; data not shown: share of HCF1 of the MEF lysate that is enriched by immunoprecipitation of endogenous OGT

Sequence of UniProt Q8CGY8 (Q8CGY8 whole entry): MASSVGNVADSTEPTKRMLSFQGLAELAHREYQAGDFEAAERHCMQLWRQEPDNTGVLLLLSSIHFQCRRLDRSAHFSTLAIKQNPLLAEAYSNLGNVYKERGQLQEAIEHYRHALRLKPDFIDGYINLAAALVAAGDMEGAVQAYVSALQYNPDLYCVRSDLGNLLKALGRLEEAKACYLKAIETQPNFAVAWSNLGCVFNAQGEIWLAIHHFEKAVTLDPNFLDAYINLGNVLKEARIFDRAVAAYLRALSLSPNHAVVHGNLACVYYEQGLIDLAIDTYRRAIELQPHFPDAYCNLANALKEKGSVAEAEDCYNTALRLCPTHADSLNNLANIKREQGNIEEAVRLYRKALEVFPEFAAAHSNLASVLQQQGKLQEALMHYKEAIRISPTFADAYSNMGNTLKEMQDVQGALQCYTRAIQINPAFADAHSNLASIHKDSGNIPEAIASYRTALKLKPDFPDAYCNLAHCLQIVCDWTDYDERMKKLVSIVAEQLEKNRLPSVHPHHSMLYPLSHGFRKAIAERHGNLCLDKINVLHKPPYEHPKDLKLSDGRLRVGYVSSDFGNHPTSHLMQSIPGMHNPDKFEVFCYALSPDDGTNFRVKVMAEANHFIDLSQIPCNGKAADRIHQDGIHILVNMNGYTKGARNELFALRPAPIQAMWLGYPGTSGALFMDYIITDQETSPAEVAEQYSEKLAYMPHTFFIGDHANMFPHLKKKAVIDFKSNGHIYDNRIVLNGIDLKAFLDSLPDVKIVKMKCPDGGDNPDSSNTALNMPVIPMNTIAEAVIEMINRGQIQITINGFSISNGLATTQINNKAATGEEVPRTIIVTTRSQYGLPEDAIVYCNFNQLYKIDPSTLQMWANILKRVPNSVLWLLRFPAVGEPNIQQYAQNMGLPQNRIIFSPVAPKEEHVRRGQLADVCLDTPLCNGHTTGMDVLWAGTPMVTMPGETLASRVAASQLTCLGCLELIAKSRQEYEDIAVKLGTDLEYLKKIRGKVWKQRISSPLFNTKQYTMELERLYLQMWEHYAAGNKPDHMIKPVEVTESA

Host cell factor 1 precursor, Q61191 1-2045
percent of FL HCF1 enriched by OGT immunoprecipitation: 80 to 90%
